Biological target: T1, TnsD A486H (Escherichia coli (transposon Tn7), UniProt P13991 1-508, A486H)
T1 sequence: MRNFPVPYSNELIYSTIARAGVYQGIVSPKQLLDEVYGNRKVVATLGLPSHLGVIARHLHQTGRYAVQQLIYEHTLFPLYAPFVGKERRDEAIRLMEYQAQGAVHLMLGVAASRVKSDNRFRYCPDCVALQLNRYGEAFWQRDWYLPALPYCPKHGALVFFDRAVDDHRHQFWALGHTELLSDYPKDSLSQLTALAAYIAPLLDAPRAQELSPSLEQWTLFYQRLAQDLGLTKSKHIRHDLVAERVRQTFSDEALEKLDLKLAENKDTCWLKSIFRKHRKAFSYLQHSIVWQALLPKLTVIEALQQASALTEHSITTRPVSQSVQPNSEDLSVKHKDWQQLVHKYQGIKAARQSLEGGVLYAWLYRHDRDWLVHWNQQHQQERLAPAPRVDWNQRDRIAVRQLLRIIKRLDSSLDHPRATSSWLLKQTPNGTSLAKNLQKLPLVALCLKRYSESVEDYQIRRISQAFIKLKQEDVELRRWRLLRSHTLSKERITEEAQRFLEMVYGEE
Test: EMSA; Gel-shift buffer not given (as described in ref. 6); TnsD stored in 500 mM KCl, 50 mM Tris-HCl pH 8.0, 1 mM EDTA, 2 mM DTT, 25% glycerol
Details: protein: recombinant; tags: intein-chitin tag, cleaved with DTT

B1: attTn7 wt (+23 to +58) (dsDNA)
DNA 1: CCGCGTAACCTGGCAAAATCGGTTACGGTTGAGTAA
DNA 2: TTACTCAACCGTAACCGATTTTGCCAGGTTACGCGG
Which binding signal does the source give for B1 here?
The binding signal was 0.1 relative to wt.
